In test [1] the target is wild-type human IL-21R (human) (UniProt Q9HBE5). In words: AlphaSeq yeast mating assay, unbuffered media.
Test [2] has the same target. In words: AlphaSeq yeast mating assay, pH 5 media.
Test [3] deals with human interleukin 21 receptor (IL-21R) (human) (UniProt Q9HBE5). In words: AlphaSeq yeast mating, unbuffered media.
The target in test [4] is human IL-21R (human) (UniProt Q9HBE5). In words: AlphaSeq yeast mating assay, unbuffered media.
Test [5] shares this target. In words: AlphaSeq yeast mating assay, pH 6 media.
Test [6] has the same target. In words: AlphaSeq yeast mating assay, pH 7 media.
Test [7] has the same target. In words: AlphaSeq yeast mating assay, pH 5 media.
Test [8] deals with recombinant human IL-21R His tag (Acro Biosystems) (human) (UniProt Q9HBE5). In words: BLI. Background: BLI is a label-free optical method that tracks binding on a fibre tip over time.
In test [9] the target is human interleukin 21 receptor (IL-21R) (human) (UniProt Q9HBE5). In words: AlphaSeq yeast mating, pH 5 media.
The target in test [10] is wild-type human IL-21R (human) (UniProt Q9HBE5). In words: AlphaSeq yeast mating assay, pH 6 media.

For orientation: Kd means a measure of binding affinity in units of concentration.

As for “IL-21_N54K (from UniProt Q9HBE4 32-152) (ligand)”, the dissociation constant Kd came to 8000 nM in test [1] and 190 nM in [2].
“IL-21_V53H (from UniProt Q9HBE4 32-152) (ligand)” had an equilibrium dissociation constant (Kd) in [3] of 46000 nM.
Consider “IL-21_Q32K (from UniProt Q9HBE4 33-152) (ligand)”, for which the Kd with human IL-21R (human) [4] came out at 2700 nM; in the test with human IL-21R (human) [5] it was 12 nM; in the test with human IL-21R (human) [6], 28 nM; with human IL-21R (human) [7] it was 27 nM.
The corresponding values for “IL-21_Q150D (from UniProt Q9HBE4 32-152) (ligand)” are 960 nM, 21 nM, 59 nM and 56 nM.
Consider “IL-21_human_V53N Fc fusion protein (from UniProt Q9HBE4 30-162)”, for which the dissociation constant Kd in test [8] was 87.1 nM.
With “IL-21_S142H (from UniProt Q9HBE4 32-152) (ligand)”, the Kd in [3] turned out to be 11000 nM; in test [9], 51 nM.
Turning to “IL-21_F79E (from UniProt Q9HBE4 32-152) (ligand)”, the Kd with human IL-21R (human) [4] worked out at 110000 nM; in the test with human IL-21R (human) [5], 7000 nM; with human IL-21R (human) [6], 6900 nM; in the test with human IL-21R (human) [7], 59000 nM.
As for “IL-21_E68K (from UniProt Q9HBE4 32-152) (ligand)”, the dissociation constant (Kd) is 3300 nM in [1] and 27 nM in test [2].
Consider “IL-21_human_W73V Fc fusion protein (from UniProt Q9HBE4 30-162)”, for which, in test [8], the Kd is 6.3 nM.
With “IL-21_I37S (from UniProt Q9HBE4 32-152) (ligand)”, the equilibrium dissociation constant (Kd) was 240000 nM with human IL-21R (human) [4], 530 nM in the test with human IL-21R (human) [5], 320 nM with human IL-21R (human) [6] and 16000 nM with human IL-21R (human) [7].
In the case of “IL-21_L152H (from UniProt Q9HBE4 32-151) (ligand)”, the Kd in test [1] was determined as 4400 nM; in [10], 12 nM; in [2] it was 26 nM.
Consider “IL-21_M39G (from UniProt Q9HBE4 32-152) (ligand)”, for which the Kd with human IL-21R (human) [4] was determined as 240000 nM; with human IL-21R (human) [5], 31000 nM; with human IL-21R (human) [6] it was 7800 nM; in the test with human IL-21R (human) [7], 150000 nM.
Taken in the same sequence, the figures for “IL-21_A112P (from UniProt Q9HBE4 32-152) (ligand)” were 1000 nM, 21 nM, 80 nM and 58 nM.
Regarding “IL-21_S77R (from UniProt Q9HBE4 32-152) (ligand)”, the dissociation constant (Kd) in test [3] came to 46000 nM.
For “IL-21_I37V (from UniProt Q9HBE4 32-152) (ligand)”, the dissociation constant (Kd) came to 3200 nM in test [1] and 58 nM in [2].
Consider “IL-21_V53T (from UniProt Q9HBE4 32-152) (ligand)”, for which the dissociation constant (Kd) in [3] was found to be 30000 nM; in [9] it was 9600 nM.
On to “IL-21_A112R (from UniProt Q9HBE4 32-152) (ligand)”, for which the Kd in test [1] amounted to 7900 nM; in test [2] it was 39 nM.
As to “IL-21_M36T (from UniProt Q9HBE4 32-152) (ligand)”, the Kd in test [1] was determined as 3100 nM; in test [2], 110 nM.
For the substance “IL-21_S109R (from UniProt Q9HBE4 32-152) (ligand)”, the Kd was 6000 nM in test [1], 15 nM in [10] and 36 nM in test [2].
As for “IL-21_E59S (from UniProt Q9HBE4 32-152) (ligand)”, the figures for the dissociation constant Kd in test [10] and in [2] were 16 nM and 41 nM, respectively.
For the substance “IL-21_E72I (from UniProt Q9HBE4 32-152) (ligand)”, the results for the Kd in [1] and in [10] were 4700 nM and 15 nM, respectively.
In the case of “IL-21_D33Q (from UniProt Q9HBE4 32-152) (ligand)”, the Kd stood at 7500 nM in test [1], 21 nM in test [10] and 84 nM in [2].
The corresponding values for “IL-21_I43M (from UniProt Q9HBE4 32-152) (ligand)” are 3500 nM, 27 nM and 110 nM.
“IL-21_K131M (from UniProt Q9HBE4 32-152) (ligand)” returned a Kd in [3] of 27000 nM.
In [9], “IL-21_L120H (from UniProt Q9HBE4 32-152) (ligand)” yielded an equilibrium dissociation constant (Kd) of 34 nM.
“IL-21_D33T (from UniProt Q9HBE4 32-152) (ligand)” displayed a Kd in test [3] of 15000 nM.
With “IL-21_R139S (from UniProt Q9HBE4 32-152) (ligand)”, the figures for the dissociation constant Kd in test [1] and in test [2] were 3000 nM and 81 nM, respectively.
Regarding “IL-21_I37K (from UniProt Q9HBE4 32-152) (ligand)”, the Kd was determined as 95000 nM with human IL-21R (human) [4], 190 nM in the test with human IL-21R (human) [5], 120 nM with human IL-21R (human) [6] and 3300 nM in the test with human IL-21R (human) [7].
The corresponding values for “IL-21_F79Y (from UniProt Q9HBE4 32-152) (ligand)” are 330000 nM, 2000 nM, 530 nM and 72000 nM.
For the substance “IL-21_P62V (from UniProt Q9HBE4 32-152) (ligand)”, the results for the equilibrium dissociation constant (Kd) with human IL-21R (human) [4], in the test with human IL-21R (human) [6] and with human IL-21R (human) [7] were 110000 nM, 120 nM and 11000 nM, respectively.
“IL-21_F60H (from UniProt Q9HBE4 32-152) (ligand)”: the equilibrium dissociation constant (Kd) stood at 2400 nM with human IL-21R (human) [4], 15 nM with human IL-21R (human) [5], 35 nM with human IL-21R (human) [6] and 62 nM with human IL-21R (human) [7].
“IL-21_W73G (from UniProt Q9HBE4 32-152) (ligand)”: the dissociation constant Kd worked out at 150000 nM with human IL-21R (human) [4], 330 nM in the test with human IL-21R (human) [6] and 57000 nM in the test with human IL-21R (human) [7].
Taken in the same sequence, the figures for “IL-21_R105A (from UniProt Q9HBE4 32-152) (ligand)” were 270000 nM, 20000 nM and 260000 nM.
The corresponding values for “IL-21_P62S (from UniProt Q9HBE4 32-152) (ligand)” are 2800 nM, 27 nM and 100 nM.
Regarding “IL-21_V53E (from UniProt Q9HBE4 32-152) (ligand)”, the dissociation constant (Kd) in test [3] worked out at 31000 nM.
Consider “IL-21_P107Y (from UniProt Q9HBE4 32-152) (ligand)”, for which the Kd in [1] worked out at 6500 nM; in test [10] it was 58 nM; in test [2], 120 nM.
Turning to “IL-21_R34Q (from UniProt Q9HBE4 32-152) (ligand)”, the Kd in the test with human IL-21R (human) [4] came out at 1100 nM; with human IL-21R (human) [5], 35 nM; with human IL-21R (human) [6], 120 nM; with human IL-21R (human) [7] it was 200 nM.
As for “IL-21_W73Y (from UniProt Q9HBE4 32-152) (ligand)”, the figures for the Kd in [10] and in [2] were 85 nM and 190 nM, respectively.
On to “IL-21_V53S (from UniProt Q9HBE4 32-152) (ligand)”, for which the Kd in the test with human IL-21R (human) [4] is 1400 nM; with human IL-21R (human) [5], 20 nM; with human IL-21R (human) [6], 56 nM; in the test with human IL-21R (human) [7], 47 nM.
Turning to “IL-21_E68R (from UniProt Q9HBE4 32-152) (ligand)”, the values for the dissociation constant (Kd) in [1], in [10] and in test [2] were 6300 nM, 16 nM and 40 nM, respectively.
The corresponding values for “IL-21_R34Y (from UniProt Q9HBE4 32-152) (ligand)” are 3400 nM, 350 nM and 6700 nM.
On to “IL-21_N70H (from UniProt Q9HBE4 32-152) (ligand)”, for which the dissociation constant Kd in test [1] turned out to be 4400 nM; in test [10], 20 nM.
“IL-21_D44A (from UniProt Q9HBE4 32-152) (ligand)”: the dissociation constant (Kd) with human IL-21R (human) [4] was 240000 nM; in the test with human IL-21R (human) [5], 52 nM; with human IL-21R (human) [6] it was 240 nM; in the test with human IL-21R (human) [7], 140 nM.

(Values after patent US12281147.)
